Test results published in patent US20030138859A1, “Assay kits and methods for immune complex-mediate activation involving shed antigens” (BioCrystal, Ltd., priority 1999, published 2003).
Values belong to the compound of their own block, whether it stands above or below them.

What was measured:
[1] = target: FcγRI on type 1 or type 2 endothelial cells; test: cell-based or functional assay
[2] = target: murine FcγRI on murine cells (Met 129, B16F10, granulocytes, peritoneal macrophages, MH-S macrophages) (mouse) (UniProt P26151); test: cell-based or functional assay
[3] = test system: mucin-secreting human tumor cell line T-47D; test: In vitro tumor cell invasion assay through matrix (Boyden chamber) with stromal cells; type: cell-based; details: anti-sTn IgG1 mAb
Text: To illustrate this embodiment, granulocytes (polymorphonuclear cells) were harvested by positive selection from peripheral blood, and macrophages were harvested by peritoneal wash, from C3H-SCID beige mice in order to avoid contaminating mouse NK cells, natural Abs, or any immune recognition by mouse T or B lymphocytes. In this in vitro tumor cell invasion assay, used were mucin-secreting human tumor cell line T-47D, a Boyden chamber, and a commercially available basement membrane matrix preparation (“matrix”) which solidifies into a semisolid matrix. In this assay, tested was the ability of tumor cells (2×10^4 cells) to migrate through the matrix (layered into a 6.5 mm well insert containing a polycarbonate membrane having a 3.0 μm pore size) in the following conditions: matrix alone; matrix containing stromal cells (2×10^5 cells, granulocytes and macrophages combined); matrix in the presence of anti-shed tumor antigen antibody (anti-sTn mAb; IgG1; 0.06 μg); matrix containing stromal cells in the presence of anti-sTn mAb (0.06 μg); and matrix containing stromal cells in the presence of Fab fragments (0.06 μg) of the anti-sTn mAb. […] Invasion was measured by counting the number of tumor cells per well which migrated to the bottom of the chamber after 48 to 72 hours. […]

Sequence of murine FcγRI on murine cells (Met 129, B16F10, granulocytes, peritoneal macrophages, MH-S macrophages) (mouse) (P26151 25-404): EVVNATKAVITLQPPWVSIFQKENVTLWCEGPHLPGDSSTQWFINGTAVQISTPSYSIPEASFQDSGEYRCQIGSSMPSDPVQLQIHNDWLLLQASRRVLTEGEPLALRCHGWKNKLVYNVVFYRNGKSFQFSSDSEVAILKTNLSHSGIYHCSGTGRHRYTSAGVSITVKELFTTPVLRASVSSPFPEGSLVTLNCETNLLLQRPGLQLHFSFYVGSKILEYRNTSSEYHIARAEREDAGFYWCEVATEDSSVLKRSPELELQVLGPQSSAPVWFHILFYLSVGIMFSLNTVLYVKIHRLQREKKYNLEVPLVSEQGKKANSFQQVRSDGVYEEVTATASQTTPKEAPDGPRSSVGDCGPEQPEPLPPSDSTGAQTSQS

VEGF production by type 1 endothelial cells (ELISA, 2 h) [1]: > 5 pg/mL
IFN-γ secreted, macrophages + IC (ELISA) [2]: 5.3 pg/mL
IFN-γ secreted, macrophages + tumor cells + IC (ELISA) [2]: 4 pg/mL
IFN-γ secreted, macrophages + tumor cells + neutrophils + IC (ELISA) [2]: 4.1 pg/mL
IL-1β secreted, macrophages + IC (ELISA) [2]: 2.5 pg/mL
IL-1β secreted, macrophages + tumor cells + neutrophils + IC (ELISA) [2]: 22.8 pg/mL
IL-4 secreted, macrophages + IC (ELISA) [2]: 1.5 pg/mL
IL-4 secreted, macrophages + tumor cells + IC (ELISA) [2]: 1.3 pg/mL
IL-4 secreted, macrophages + tumor cells + neutrophils + IC (ELISA) [2]: 0.6 pg/mL
IL-6 secreted, macrophages + IC (ELISA) [2]: 104 pg/mL
IL-6 secreted, macrophages + tumor cells + IC (ELISA) [2]: 400 pg/mL
Compound: immune complexes comprising bovine submaxillary mucin and anti-sTn mAb (clone B72.3, IgG1)

Compound: methoxysuccinyl-alanyl-alanyl-prolyl-valine-chloromethylketone [MAAPVC]
reduction in tumor cell migration compared to assay in absence of the substance ([3]; 0.1 μg/well): ~5 fold

Compound: [N-]=[N+]=[N-] [azide, sodium azide]
reduction in tumor cell migration compared to assay in absence of the substance ([3]; 0.001% per well): ~5 fold
